Results as given in the supplement of paper PMC10567573.
± gives the standard deviation.

Test: protein stability index of a GFP-peptide fusion (GPS, HEK-293T) (PSI 1-6); higher = more stable
[1] = treatment: DMSO, c terminus: a fixed tail appended
[2] = treatment: MLN4924 1 uM, 8 h, c terminus: a fixed tail appended
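Further: 24-mer peptide tiles fused after GFP, lentivirally expressed, FACS-sorted into six equal bins by GFP/DsRed ratio, decoded by Illumina sequencing, PSI is the read-weighted mean bin number.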

Sequence	protein stability index [1]	protein stability index [2]	protein stability index (treatment: DMSO, c terminus: native)	protein stability index (treatment: MLN4924 1 uM, 8 h, c terminus: native)
RKRMGTRRGRHEQSPTSRPRKVSS [C22orf15]	4.7 ± 0.25	4.59 ± 0.13		
DMVQKSVSKTLPSTWSDPSVNISL [CLINT1]	3.04 ± 0.19	3.2 ± 0.19		
TNNKVYAAKIIPHSRVAKPHQREK [PLK2]	3.71 ± 0.2	4.08 ± 0.57		
TFASLETVGIYFGLVYRIHSVLQG [TMEM40]	3.59 ± 0.44	3.24 ± 0.23		
RLEREERNQTQVLRQQQDEAYLAS [FAF2]	4.96 ± 0.21	5 ± 0.15		
FTKETTQKNFNNLYGTKGNYTSRV [TRIM29]	2.26 ± 0.42	2.61 ± 0.27		
VFEKAGVSISVVHGNLSEEAAKQM [CPOX]	3.72 ± 0.15	3.65 ± 0.4		
TDDSYSCHCLKGFTLNPDKKTCRR [MATN2]	3.27 ± 0.78	4.03 ± 0.7		
MDEKVFTKELDQWIEQLNECKQLS [PPP2CA]	4.15 ± 0.17	4.15 ± 0.16		
PRIWSLAHTATASAVEGAPPARPR [IRX6]	4.44 ± 0.26	4.43 ± 0.11		
RGRTQLFSLNPRSGSLITAGRIDR [PCDHGA10]	3.29 ± 0.13	3.31 ± 0.34		
FEQGKWDVFSENLLADVKGARAAL [STX11]	2.67 ± 0.14	2.72 ± 0.45		
NEPSINFYKRRGASDLSSEEGWRL [SAT1]	3.69 ± 0.4	3.84 ± 0.17		
GAVAPMDFTTAAEDQPINLCDKLP [NOL4L]	4.7 ± 0.1	4.77 ± 0.34		
ILREFEELHRRLDEEQQVLLSRLE [TRIM39]	3.43 ± 0.3	3.63 ± 0.12		
EVEIVGVQEHARCVHPRGGVIQSV [C18orf25]	3.45 ± 0.35	3.6 ± 0.31		
TFRQYCGAACTCHVRNPLSACSIM [RNF208]	2.21 ± 0.4	2.2 ± 0.27		
QREEVEERMWAAIQSWDINSRRNI [ZER1]	3.75 ± 0.36	3.69 ± 0.29		
FRQRCLERMRNSRDRLLNRYRQAG [RPAIN]	3.15 ± 0.12	3.2 ± 0.15		
AFAFQNTFPHSISAKNTSHPGSGT [SASS6]	3.36 ± 0.39	3.45 ± 0.45		
KLDLWSFLDIPRSRLVKYPLLLKE [NET1]	2.21 ± 0.52	1.94 ± 0.47		
NRVVVSGLPPSGSWQDLKDHMREA [SRSF1]	3.93 ± 0.094	4.03 ± 0.12		
MGKRDTADIISTVEFNHTGELLAT [PPP2R2C]	3.62 ± 0.21	3.89 ± 0.31		

Sequence	protein stability index [1]	protein stability index [2]	protein stability index (treatment: DMSO, c terminus: native)	protein stability index (treatment: MLN4924 1 uM, 8 h, c terminus: native)
STLLGEMDLLTQSLGVDTLPPPDP [APBB1IP]	3.79 ± 0.42	4.03 ± 0.41		
STLPSLREEEEQVRAHAPRGNAPP [KCNG1]	4.43 ± 0.23	4.91 ± 0.35		
RLSVELTSSLFRTEPMAWNETADL [CTNNB1]	2.83 ± 0.2	3.03 ± 0.31		
DVVALLINHGAEVTCKDKKGYTPL [ANKRD44]	2.33 ± 0.55	2.27 ± 0.48		
YLTNCEKLSAKSLQTLRSFSHTLV [ZER1]	2.3 ± 0.16	2.24 ± 0.38		
FFFRHGHRGLLTMQLKSPMPSSTT [SPAG8]	2.14 ± 0.26	2 ± 0.23		
YRGTLKRQPAFDTFDGSLFAVFPS [ETS2]	2.31 ± 0.42	2.08 ± 0.14		
FKDYIQERSDPVEQGKPVIPAAVL [ETS2]	4.08 ± 0.2	3.97 ± 0.27		
AVMFFIVFFAYAQLGYLLFGTQVE [PKD2L1]	2.7 ± 0.48	2.73 ± 0.44		
GFTNKQLQSGQEYVFFVLAVMEHA [PTPRD]	2.95 ± 0.76	2.39 ± 0.79		
HSCTCVLYTPSNEHFGIVPLEAMY [ALG2]	2.43 ± 0.38	2.41 ± 0.22		
SDSMHIEDVEAVQKLQDVLHEALQ [ESRRG]	3.42 ± 0.29	3.54 ± 0.16		
YTPTAEDSAQMQNGGPSTPPASPP [ANKRD40]	5.27 ± 0.22	5.16 ± 0.2		
GVSREEIEREVNILREIRHPNIIT [DAPK3]	2.38 ± 0.42			
VHTGCHKKLGPEARRPRTRWGKN			2.8 ± 0.5	3.08 ± 0.69
NSGHTIFNDPFFIVETVCIVWFSF [KCNA4]	3.49 ± 0.58	3.51 ± 0.31		
LKIFTEDLPEVESLPRDRVLGFLI [VPS39]	2.25 ± 0.49	2.23 ± 0.43		
YAIAGYDGNSLLSSIECYDPIIDS [KLHL12]	2.83 ± 0.48	3.01 ± 0.36		
PKSLVRLSLEAVICFKEMLANSWN [KLHDC2]	2.41 ± 0.65	2.49 ± 0.3		
KANNLSSLSKKYRQDAKYLNMRST [SEC22B]	3.23 ± 0.11	3.33 ± 0.24		
YADFERFSKVLEEAAAAEEGLREL [DAPK3]	2.46 ± 0.18			
LRMLEYEPAARISPLGALQHGFFR [DYRK1B]	2.51 ± 0.2	2.61 ± 0.33		
PPGGSGSEPYKLLPGAVATIVKPL [HNF4A]	3.59 ± 0.11	3.58 ± 0.18		

Sequence	protein stability index [1]	protein stability index [2]	protein stability index (treatment: DMSO, c terminus: native)	protein stability index (treatment: MLN4924 1 uM, 8 h, c terminus: native)
GPPVGPLSLGLATVDIQNPDITSS [WAS]	4.68 ± 0.23	4.39 ± 0.24		
LRWERAWFPPAIMGVVSLVFLIIY [ARL6IP1]	3.17 ± 0.1	3.08 ± 0.31		
KTRQKSEKQMEEKRRANQKSSAQG [PPEF2]	5.25 ± 0.27	5.3 ± 0.2		
STPLSPAYISLVEEEDQHMKLSLG [KLHL13]	4.27 ± 0.16	4.28 ± 0.19		
SMRLLESKKGLSFFAFEHSEEYQQ [TCF25]	3.35 ± 0.12	3.3 ± 0.16		
ADGSPPLLPPGEPPLLGTFPRDHT [ANKRD40]	4.8 ± 0.28	4.49 ± 0.21		
GKKYNWSCDDLMGGGGLHSVGTYI [GFOD1]	2.13 ± 0.35	2.33 ± 0.29		
MSSPSSPFREQSFLCAAGDAGEES [TIAF1]	5.34 ± 0.18	5.32 ± 0.17		
RLGELFNPYYDPLQWKSSHFERRD [CHGB]	2.45 ± 0.28	2.64 ± 0.24		
RAWIPSENIQDITVNIHRLHVKRS [ZMYND11]	2.55 ± 0.31	2.49 ± 0.16		
KTPPSSCDSTNAAIAKQALKKPIK [KMT5A]	5.11 ± 0.12	5.15 ± 0.3		
VTDCKHTEDVGVVCSDKRIPGFKF [LOXL2]	3.61 ± 0.35	3.77 ± 0.16		
IFRSKLKNRPSSEGSINKILSGLD [CDC14A]	2.27 ± 0.32	2.69 ± 0.42		
SSVSDVKFSHSGRYMLTRDYLTVK [PPP2R2C]	2.88 ± 0.24	2.87 ± 0.39		
VKTGEDGSNLDDAKGLAESLELPK [FANCE]	5.44 ± 0.18	5.49 ± 0.14		
HVPEGFDPTGPAGLGRPTPGLSQG [EHMT1]	4.4 ± 0.27	4.51 ± 0.11		
LVQKDQHSFELDEKALASILLQDH [ATL3]	3.43 ± 0.35	3.38 ± 0.28		
GEKEVEALKKSADWVSDWSSRPEN [BNIP3L]	4.78 ± 0.27	4.88 ± 0.39		
LAHLAPLFDNPKLDKELRAMLREK [INTS3]	2.6 ± 0.41	2.65 ± 0.5		
TLASAGGPDNLVLLNPEKYKAKSR [ADD1]	4.22 ± 0.22	4.31 ± 0.2		
RLMRDMAQLRLQLEVSQLEGSLQQ [SMG5]	2.39 ± 0.43	2.6 ± 0.3		
QEGWIHHLARHAVACFLTRGDLWI [CRY1]	3.05 ± 0.48	2.89 ± 0.44		
TESQLTPCIRNVTSPTRQHHVERE [BTBD10]	4.99 ± 0.16	4.95 ± 0.17		

Sequence	protein stability index [1]	protein stability index [2]	protein stability index (treatment: DMSO, c terminus: native)	protein stability index (treatment: MLN4924 1 uM, 8 h, c terminus: native)
VLCLIVLPLALYTATFAVHFMVLS [POMT2]	3.17 ± 0.19	3.34 ± 0.43		
CNVKYKRWALLSCRGKKPSRIYGQ [KLHDC10]	2.21 ± 0.42	2.22 ± 0.37		
ANCIVHRDLKPENILVTSGGTVKL [CDK4]	3.23 ± 0.15	3.5 ± 0.32		
LSHAGQKATAAFSNVGTAISKKFG [TPD52L1]	3.73 ± 0.23	3.66 ± 0.21		
SLPETFGDFWRMIWEQRSATVVMM [PTPRD]	2.69 ± 0.7	2.43 ± 0.83		
QDLCCRTIVSCTPVHLVDKLPLPS [RAB40A]	2.34 ± 0.26	2.39 ± 0.35		
FLAENSAFPKMALQAKQDGKKDVS [LCOR]	4.23 ± 0.29	4.36 ± 0.36		
VWWVSQFVKYLIRPQPWLEKEIEE [FUT8]	2.32 ± 0.46	2.035 ± 0.002		
MRKSGAMKKGGIFSAEFLKVFIPS [BNIP3L]	2.38 ± 0.3	2.26 ± 0.21		
NSKPCISLNGPLSTSRHVMAPVMA [ADAMTS4]	2.83 ± 0.39	3.12 ± 0.19		
PKPADFRNPGPGRHRLITQVYLSH [INTS4]	2.59 ± 0.17	2.57 ± 0.24		
NTNTLKVPECRLAEDLGNLWENTR [SPOPL]	3.22 ± 0.26	3.41 ± 0.34		
SRNRDPGRLILSTIRLRPRQVLCE [PWWP2B]	2.68 ± 0.18	3.04 ± 0.25		
MSSRKVLAIQARKRRPKREKHPKK [SRPK2]	4.41 ± 0.28	4.46 ± 0.52		
VAERGTTQGCHPAWEPRSESQASR [ZNF8]	4.48 ± 0.22	4.6 ± 0.2		
LMRTCERLVKEGRFVPSNPIGILT [PPTC7]	2.65 ± 0.17	2.53 ± 0.23		
LAEVAPVVTTEHILVSVAAGVSLS [PYCR3]	2.22 ± 0.27	2.44 ± 0.21		
GCTGDEAESRGHSKGWGRNYASII [MYCL]	3.1 ± 0.13	3.2 ± 0.17		
WDLRDQSVVRDLKGYPDGVKSIVV [TLE6]	2.63 ± 0.25	2.63 ± 0.077		
SDLNEVPVKELAALPKATILDLSC [LRRC59]	3.96 ± 0.052	4.01 ± 0.3		
